The record followed here is patent publication US20120316071A1 (published 2012).

The target of assay [1] is T1, Recombinant Human DLL4 (R&D Systems Cat#1506-D4/CF) (human, UniProt Q9NR61 27-529).
T1 construct: Bought recombinant protein; also called delta-like protein 4; rHuman DLL4
Description: ECL Multispot (MSD), antigen spotted; Fab 5 (µM); blank 211.

For assay [2], the target named is T2, rHuman EGF R/Fc Chimera, CF (R&D Systems Cat#344-ER) (human, UniProt P00533 25-645).
T2 construct: Bought recombinant protein; Fc part of the bought chimera not given
The assay is described as above.

Assay [3] concerns the target T3, rHuman HGF R/c-MET/Fc Chimera, CF (R&D Systems Cat#358-MT/CF) (human, UniProt P08581 25-932).
T3 construct: Bought recombinant protein; also called HGF R/Fc; Fc part of the bought chimera not given
The assay is described as above.

Assay [4] addresses T4, rHuman Notch-1/Fc Chimera, CF (R&D Systems Cat#3647-TK) (human, UniProt P46531 19-526).
T4 construct: Bought recombinant protein; Fc part of the bought chimera not given
The assay is described as above.

Assay [5] has as its target T5, rHuman IGF-1 sR, CF (R&D Systems Cat#391-GR) (human, UniProt P08069 31-932).
T5 construct: Bought recombinant soluble receptor; also called insulin-like growth factor-1 soluble receptor
Described as above.

For assay [6], the target named is T6, rHuman P-Cadherin/Fc Chimera, CF (R&D Systems Cat#861-PC) (human, UniProt P22223 108-654).
T6 construct: Bought recombinant protein; Fc part of the bought chimera not given
The assay is described as above.

Assay [7] concerns the target T7, rHuman Erythropoietin R/Fc Chimera, CF (R&D Systems Cat#963-ER) (human, UniProt P19235 25-250).
T7 construct: Bought recombinant protein; also called EPO R; EPO R/Fc; Fc part of the bought chimera not given
T7 sequence (looked up): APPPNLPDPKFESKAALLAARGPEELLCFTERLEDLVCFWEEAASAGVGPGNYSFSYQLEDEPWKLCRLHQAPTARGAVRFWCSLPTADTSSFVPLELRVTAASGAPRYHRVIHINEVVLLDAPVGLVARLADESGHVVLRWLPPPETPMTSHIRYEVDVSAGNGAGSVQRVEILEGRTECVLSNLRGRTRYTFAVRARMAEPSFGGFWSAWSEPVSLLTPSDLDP
Description: ECL Multispot (MSD), antigen spotted; Fab 0.50 (µM); blank 142.

Assay [8] addresses T1, Recombinant Human DLL4 (R&D Systems …). Described as above.
The target of assay [9] is T8, rHuman ErbB2/Fc Chimera, CF (R&D Systems Cat#1129-ER) (human, UniProt P04626 23-652).
T8 construct: Bought recombinant protein; Fc part of the bought chimera not given
Described as above.

Assay [10] concerns the target T2, rHuman EGF R/Fc Chimera, CF (R&D …). The description is as above.
Assay [11] deals with T3, rHuman HGF R/c-MET/Fc Chimera, CF (R&D …). The description is as above.
Assay [12] addresses T4, rHuman Notch-1/Fc Chimera, CF (R&D …). Described as above.
In assay [13] the target is T9, rHuman CD44/Fc Chimera, CF (R&D Systems Cat#3660-CD) (human, UniProt P16070 21-220).
T9 construct: Bought recombinant protein; Fc part of the bought chimera not given
The assay is described as above.

Assay [14] deals with T5, rHuman IGF-1 sR, CF (R&D Systems …). The description is as above.
Assay [15] has as its target T6, rHuman P-Cadherin/Fc Chimera, CF (R&D …). The assay is described as above.
Assay [16] deals with T10, Recombinant Human DLL4 (R&D Systems Cat#1506-D4/CF) (human, UniProt Q9NR61 27-524).
T10 construct: Bought recombinant protein; also called rHuman DLL4; delta-like protein 4
The assay is described as follows: MSD Multispot ECL, antigen spotted on plate, Fab at 60 nM; blank spot 237.

Assay [17] has as its target T11, rHuman Notch-1/Fc Chimera, CF (R&D Systems Cat#3647-TK) (human, UniProt P46531 19-526).
T11 construct: Bought Fc chimera; Fc part of the bought chimera not given
The description is as above.

For assay [18], the target named is T12, rHuman CD44/Fc Chimera, CF (R&D Systems Cat#3660-CD) (human, UniProt P16070 21-220).
T12 construct: Bought Fc chimera; Fc part of the bought chimera not given
Described as above.

Assay [19] addresses T13, rHuman P-Cadherin/Fc Chimera, CF (R&D Systems Cat#861-PC) (human, UniProt P22223 108-654).
T13 construct: Bought Fc chimera; Fc part of the bought chimera not given
The description is as above.

Assay [20] deals with T14, rHuman Erythropoietin R/Fc Chimera, CF (R&D Systems Cat#963-ER) (human, UniProt P19235 25-250).
T14 construct: Bought Fc chimera; also called EPO R/Fc; Epo R; Fc part of the bought chimera not given
T14 sequence (looked up): T7 sequence (looked up)
The description is as above.

T3 sequence (P08581 25-932, change not shown): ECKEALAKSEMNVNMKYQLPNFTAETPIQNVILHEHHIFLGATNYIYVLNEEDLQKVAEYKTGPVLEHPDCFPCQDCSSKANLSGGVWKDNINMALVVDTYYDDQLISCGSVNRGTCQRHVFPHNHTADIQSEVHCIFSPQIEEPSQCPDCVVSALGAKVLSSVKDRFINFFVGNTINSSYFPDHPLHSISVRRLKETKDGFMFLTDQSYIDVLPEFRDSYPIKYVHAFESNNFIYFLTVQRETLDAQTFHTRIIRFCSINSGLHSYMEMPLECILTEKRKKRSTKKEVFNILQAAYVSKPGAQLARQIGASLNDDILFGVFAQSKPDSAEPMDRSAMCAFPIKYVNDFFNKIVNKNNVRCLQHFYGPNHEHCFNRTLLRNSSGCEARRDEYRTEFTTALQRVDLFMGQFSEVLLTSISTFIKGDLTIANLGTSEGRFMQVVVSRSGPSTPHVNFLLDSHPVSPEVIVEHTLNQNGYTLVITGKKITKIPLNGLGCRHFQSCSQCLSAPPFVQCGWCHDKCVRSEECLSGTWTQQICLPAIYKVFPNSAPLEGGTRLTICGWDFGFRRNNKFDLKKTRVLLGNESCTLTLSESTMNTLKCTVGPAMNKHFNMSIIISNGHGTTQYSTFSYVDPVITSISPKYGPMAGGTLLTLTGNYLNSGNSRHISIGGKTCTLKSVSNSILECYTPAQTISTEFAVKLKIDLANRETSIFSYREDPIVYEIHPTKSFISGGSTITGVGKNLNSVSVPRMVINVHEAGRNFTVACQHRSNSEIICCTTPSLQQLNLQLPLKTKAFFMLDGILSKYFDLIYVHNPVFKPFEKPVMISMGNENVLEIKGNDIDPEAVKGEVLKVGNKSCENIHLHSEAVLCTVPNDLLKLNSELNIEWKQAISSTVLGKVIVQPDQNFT

B1: Fab VH1-46_IGHD6-6*01_IGHJ1*01 S102A/S103P/S104F (APF) & L6_IGKJ1*01 (Fab, V domains shown)
VH: QVQLVQSGAEVKKPGASVKVSCKASGYTFTSYYMHWVRQAPGQGLEWMGIINPSGGSTSYAQKFQGRVTMTRDTSTSTVYMELSSLRSEDTAVYYCAREEYAPFSAEYFQHWGQGTLVTVSS
VL: not shown
notes: Tested as a Fab made in E. coli: VH cloned in Plasmid A (CH1 constant region, His6 and Flag tags), VL in Plasmid C (kappa constant region); also called H:APF & L:wt; APF triple mutant
B1: the ECL signal in assay [1] worked out at 54900; in assay [2], 356; in assay [3], 309; in [4], 338; in [5], 300; in [6], 547. The ECL signal in assay [7] is 235; in assay [8] it was 6670; in [9], 199; in assay [10], 152; in assay [11], 182; in [12] it was 230. Moreover, the results for the ECL signal in assay [13], in [14] and in [15] were 207, 190 and 161, respectively.

B2: Fab VH6-1_IGHD3-3*01_IGHJ4*01 & V4-3_IGLJ4*01 (Fab, V domains shown)
VH: QVQLQQSGPGLVKPSQTLSLTCAISGDSVSSNSAAWNWIRQSPSRGLEWLGRTYYRSKWYNDYAVSVKSRITINPDTSKNQFSLQLNSVTPEDTAVYYCAREYYDFWSGYYTDYFDYWGQGTLVTVSS
VL: QPVLTQPTSLSASPGASARLTCTLRSGINLGSYRIFWYQQKPESPPRYLLSYYSDSSKHQGSGVPSRFSGSKDASSNAGILVISGLQSEDEADYYCMIWHSSASFVFGGGTQLIIL
notes: Tested as a purified germline Fab made in E. coli; The VH was cloned into plasmid A (CH1 constant region, His6 and Flag tags) and the lambda VL into plasmid E (lambda CL)
With B2, the ECL signal worked out at 875 in assay [16]; 415 in assay [17]; 434 in assay [18]; 372 in [19]; 423 in assay [20].
